In the experiment the target is endogenous RAS proteins in HeLa cells. The experiment is described as follows: cell-based or functional assay.

RRSP-APD-Δdta-dtB (enzyme): the EC50 of loss of RAS proteins in HeLa cells (anti-RAS immunoblot) stood at 1 pM and the potency of RAS loss in HeLa cells against RRSP-dta-dtB stood at 300 fold. The substance RRSP-dta-dtB (enzyme) had an EC50 of loss of total RAS proteins in HeLa cells (24 h, anti-RAS immunoblot) of 250 pM.

RRSP-Δdta-dtB (enzyme) returned an EC50 of loss of RAS proteins in HeLa cells (anti-RAS immunoblot) of 1 pM and a potency of RAS loss in HeLa cells against RRSP-dta-dtB of 300 fold.

These data come from patent EP3717020B1.
